# According to the RNAGym collection of RNA variant scans (doi:10.7554/elife.90254):
# B1: LINE1-mini (parent)
# chain: GGCAGAGCUCAACACAGCGUGGCAAAGUGGCUGUGGCUAGACUGCC
# Variants of: B1
# Experiment: self-cleavage, relative activity (ratio to wild type); higher = more cleavage; in vitro, sequencing; the parent is a self-cleaving ribozyme
row,Variant,self-cleavage
1,GGCAGAGCUCAACACAGCCUGGCAAAGUGGCUGUGGCUAGACUGCU [G19C C46U],1.42
2,GGCAGAGCUCAACACAGCCUGGCAAAGUGGCUGUGGCUAGACUGCG [G19C C46G],0.23
3,GGCAGAGCUCAACACAGCCUGGCAAAGUGGCUGUGGCUAGACUGCA [G19C C46A],0.52
4,GGCAGAGCUCAACACAGCCUGGCGAAGUGGCUGUGGCUAGACUGCC [G19C A24G],0.53
5,GGCAGAGCUCAACACAGCCUGGCCAAGUGGCUGUGGCUAGACUGCC [G19C A24C],0.34
6,GGCAGAGCUCAACACAGCCUGGCUAAGUGGCUGUGGCUAGACUGCC [G19C A24U],0.6
7,GGCAGAGCUCAACACAGCAUGGCAAAGUGGCCGUGGCUAGACUGCC [G19A U32C],0.12
8,GGCAGAGCUCAACACAGCAUGGCAAAGUGGCAGUGGCUAGACUGCC [G19A U32A],0.15
9,GGCAGAGCUCAACACAGCAUGGCAAAGUGGCGGUGGCUAGACUGCC [G19A U32G],0.1
10,GGCAGAGCUCAACACAGCCUGGCAAAGUGGCUGUGGCUAGUCUGCC [G19C A41U],0.19
11,GGCAGAGCUCAACACAGCCUGGCAAAGUGGCUGUGGCUAGGCUGCC [G19C A41G],0.03
12,GGCAGAGCUCAACACAGCCUGGCAAAGUGGCUGUGGCUAGCCUGCC [G19C A41C],0.05
13,GGCAGAGCUCAACACAGCCUGACAAAGUGGCUGUGGCUAGACUGCC [G19C G22A],0.39
14,GGCAGAGCUCAACACAGCCUGCCAAAGUGGCUGUGGCUAGACUGCC [G19C G22C],0.32
15,GGCAGAGCUCAACACAGCCUGUCAAAGUGGCUGUGGCUAGACUGCC [G19C G22U],0.51
16,GGCAGAGCUCAACACAGCAUGGCAAAGUGGCUGUGGCUAGACGGCC [G19A U43G],0.06
17,GGCAGAGCUCAACACAGCAUGGCAAAGUGGCUGUGGCUAGACAGCC [G19A U43A],0.15
18,GGCAGAGCUCAACACAGCAUGGCAAAGUGGCUGUGGCUAGACCGCC [G19A U43C],0.18
19,GGCAGAGCUCAACACAGCCUGGCAAAAUGGCUGUGGCUAGACUGCC [G19C G27A],0.54

row,Variant,self-cleavage
1,GGCAGAGCUCAACACAGCCUGGGAAAGUGGCUGUGGCUAGACUGCC [G19C C23G],0.42
2,GGCAGAGCUCAACACAGCCUGGAAAAGUGGCUGUGGCUAGACUGCC [G19C C23A],0.37
3,GGCAGAGCUCAACACAGCCUGGUAAAGUGGCUGUGGCUAGACUGCC [G19C C23U],0.83
4,GGCAGAGCUCAACACAGCCUGGCAAAGUGGUUGUGGCUAGACUGCC [G19C C31U],0.58
5,GGCAGAGCUCAACACAGCCUGGCAAAGUGGAUGUGGCUAGACUGCC [G19C C31A],0.63
6,GGCAGAGCUCAACACAGCCUGGCAAAGUGGGUGUGGCUAGACUGCC [G19C C31G],1.26
7,GGCAGAGCUCAACACAGCAUGGCAAAGUGGCUGUGGCGAGACUGCC [G19A U38G],0.02
8,GGCAGAGCUCAACACAGCAUGGCAAAGUGGCUGUGGCCAGACUGCC [G19A U38C],1.09
9,GGCAGAGCUCAACACAGCAUGGCAAAGUGGCUGUGGCAAGACUGCC [G19A U38A],0.82
10,GGCAGAGCUCAACACAGCCUGGCAAAGUGGCUGUGGCUAGAUUGCC [G19C C42U],0.25
11,GGCAGAGCUCAACACAGCCUGGCAAAGUGGCUGUGGCUAGAAUGCC [G19C C42A],0.14
12,GGCAGAGCUCAACACAGCCUGGCAAAGUGGCUGUGGCUAGAGUGCC [G19C C42G],0.01
13,GGCAGAGCUCAACACAGCCUAGCAAAGUGGCUGUGGCUAGACUGCC [G19C G21A],0.51
14,GGCAGAGCUCAACACAGCCUUGCAAAGUGGCUGUGGCUAGACUGCC [G19C G21U],0.47
15,GGCAGAGCUCAACACAGCCUCGCAAAGUGGCUGUGGCUAGACUGCC [G19C G21C],0.27
16,GGCAGAGCUCAACACAGCCUGGCAAAGUGGCUGUGGUUAGACUGCC [G19C C37U],0.03
17,GGCAGAGCUCAACACAGCCUGGCAAAGUGGCUGUGGGUAGACUGCC [G19C C37G],0.02
18,GGCAGAGCUCAACACAGCCUGGCAAAGUGGCUGUGGAUAGACUGCC [G19C C37A],0.04
19,GGCAGAGCUCAACACAGCCUGGCAAAGUGGCUGUGGCUAGACUGGC [G19C C45G],0.17

row,Variant,self-cleavage
1,GGCAGAGCUCAACACAGCCUGGCAAAGUGGCUGUGGCUAGACUGUC [G19C C45U],0.79
2,GGCAGAGCUCAACACAGCCUGGCAAAGUGGCUGUGGCUAGACUGAC [G19C C45A],0.47
3,GGCAGAGCUCAACACAGCCUGGCAAAGUGGCUGUGGCUUGACUGCC [G19C A39U],0.28
4,GGCAGAGCUCAACACAGCCUGGCAAAGUGGCUGUGGCUCGACUGCC [G19C A39C],0.05
5,GGCAGAGCUCAACACAGCCUGGCAAAGUGGCUGUGGCUGGACUGCC [G19C A39G],0.02
6,GGCAGAGCUCAACACAGCCUGGCAAAGUGGCUGUGGCUAGACUGCC [G19C],0.5
7,GGCAGAGCUCAACACAGCAUGGCAAAGUGGCUGCGGCUAGACUGCC [G19A U34C],0.43
8,GGCAGAGCUCAACACAGCAUGGCAAAGUGGCUGAGGCUAGACUGCC [G19A U34A],0.1
9,GGCAGAGCUCAACACAGCAUGGCAAAGUGGCUGGGGCUAGACUGCC [G19A U34G],0.29
10,GGCAGAGCUCAACACAGCAUGGCAAAGCGGCUGUGGCUAGACUGCC [G19A U28C],0.51
11,GGCAGAGCUCAACACAGCAUGGCAAAGGGGCUGUGGCUAGACUGCC [G19A U28G],1.04
12,GGCAGAGCUCAACACAGCAUGGCAAAGAGGCUGUGGCUAGACUGCC [G19A U28A],1.57
13,GGCAGAGCUCAACACAGCCUGGCAAUGUGGCUGUGGCUAGACUGCC [G19C A26U],0.37
14,GGCAGAGCUCAACACAGCCUGGCAACGUGGCUGUGGCUAGACUGCC [G19C A26C],0.68
15,GGCAGAGCUCAACACAGCCUGGCAAGGUGGCUGUGGCUAGACUGCC [G19C A26G],0.27
16,GGCAGAGCUCAACACAGCCUGGCACAGUGGCUGUGGCUAGACUGCC [G19C A25C],0.5
17,GGCAGAGCUCAACACAGCCUGGCAUAGUGGCUGUGGCUAGACUGCC [G19C A25U],0.26
18,GGCAGAGCUCAACACAGCCUGGCAGAGUGGCUGUGGCUAGACUGCC [G19C A25G],0.26
